Consider 15 molecules from US20190101529, “TAU PROTEIN-BINDING DNA APTAMERS WITH CAPTURE/DETECTION AND THERAPEUTIC UTILITIES IN TAUOPATHY-RELATED NEURODEGENERATIVE DISORDERS” (UNIVERSITY OF FLORIDA RESEARCH FOUNDATION, INC., published 2019).

Where no end group is shown, it is not given here. [ ]: non-standard residue; d: D form. pT = C[C@@H](OP(=O)(O)O)[C@H](N)C(=O)O

Series [1] deals with T1, Tau T231 peptide (UniProt P10636).
T1 chain: KVAVVRTPPKSPS
Nature of the series: flow; no significant background binding; PBS + 5 mM MgCl2, 4 C. The note with it: protein: synthetic; tags: synthetic (GenScript), N-terminal acetyl, C-terminal Ahx-Ahx-His6; label: fluorophore. The method, then: (§1) For each sample, 20 μL of peptide-beads or bare beads (˜1.4×105 beads) was washed against 500 μL of PBS three times. After removing the supernatant, beads were suspended in 80 μL of buffer containing either DNA pool or aptamer candidate to be tested at 250 nM for 30 min, but the DNA concentration used was 100 nM instead of 250 nM when examining the saturation of fluorescent signal with the selection pools. Incubations were carried out at 4° C. unless stated otherwise. Afterwards, beads were washed against 500 μL of PBS with additional 5 mM Mg2+ twice and then were suspended in 80 μL of buffer for flow cytometric analysis.
The supernatant collected after the fourth negative incubation then was carried to the 8th round of positive incubation, in which the concentration of the peptide solutions used to modify Ni-NTA beads was doubled to 800 μg/mL. Moving forward, the following selection rounds were conducted with sandwiched negative incubations to eliminate the possibility of enriching any oligonucleotides recognizing the surface of the beads and with positive beads prepared with more concentrated peptide solutions (800 μg/mL) to raise the recovery rate of the desired candidates. The SELEX progress was then evaluated again with amplicons obtained in Round #10 and Round #11. […] Four oligonucleotides were used as reference sequences.

The target of series [2] is Tau441 (microtubule-associated protein tau, 2N4R) (UniProt P10636-8 P10636-8:1-441). Nature of the series: BLI; PBS + 5 mM Mg2+, 30 C. The note with it: tags: His-tag (SignalChem) for BLI, rPeptide Tau441 for aggregation assay. The method, then: (§2) The binding affinities and binding kinetics of the selected aptamers were determined on an Octet RED384 instrument (Pall Fortebio). All measurements were performed on 384-well plates that were agitated at 1000 rpm at 30° C. The his-tag peptides were immobilized at a concentration of 5 μg/mL on Ni-NTA sensors for 10 minutes, followed by rinsing the sensors in PBS for 10 min. Then the sensors were brought into fresh association buffer (PBS with 5 mM Mg2+) to establish a baseline for another 10 min. For kinetic analysis, the peptide-immobilized sensors were transferred to the wells containing aptamer dilutions (1 μM, 1.5 μM, 2 μM, 3 μM, 4 μM) for the association step (10 min), and then moved to the wells with fresh buffer for the dissociation step (10 min). A reference sensor was used without the treatment with aptamer solution but others steps remained the same. […] Association rate constants (kon), dissociation rate constants (koff), and equilibrium dissociation constants (Kd) for each aptamer binding to its target peptide were calculated using the FORTEBIO® data analysis software 10.0.
Tau441 (microtubule-associated protein tau, 2N4R), sequence (P10636 other isoform, or with tags, fused parts or gaps): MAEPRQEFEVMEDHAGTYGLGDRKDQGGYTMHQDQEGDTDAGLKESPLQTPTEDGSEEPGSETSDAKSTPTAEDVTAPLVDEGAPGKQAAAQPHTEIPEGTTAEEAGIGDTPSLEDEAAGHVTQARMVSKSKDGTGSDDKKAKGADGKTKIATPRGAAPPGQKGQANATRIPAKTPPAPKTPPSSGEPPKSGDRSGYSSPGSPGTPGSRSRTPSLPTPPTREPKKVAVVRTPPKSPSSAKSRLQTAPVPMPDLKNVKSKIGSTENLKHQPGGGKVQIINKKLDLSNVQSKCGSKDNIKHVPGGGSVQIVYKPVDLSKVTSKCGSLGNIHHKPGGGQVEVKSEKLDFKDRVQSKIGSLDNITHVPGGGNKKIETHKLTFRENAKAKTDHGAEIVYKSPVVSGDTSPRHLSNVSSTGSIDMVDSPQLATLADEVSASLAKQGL

Another series has as its target UCH-L1 (UniProt P09936 P09936:1-223). Kind of series: EMSA; 200 nM aptamer, 0.05 mg/mL protein, 4 C. The note with it: label: 5'-FAM (flow). A general note: Mobility shift assays separate free from complexed probe on a gel.
The target of another series is T2, alpha casein (UniProt P02662 P02662:16-214).
T2 sequence: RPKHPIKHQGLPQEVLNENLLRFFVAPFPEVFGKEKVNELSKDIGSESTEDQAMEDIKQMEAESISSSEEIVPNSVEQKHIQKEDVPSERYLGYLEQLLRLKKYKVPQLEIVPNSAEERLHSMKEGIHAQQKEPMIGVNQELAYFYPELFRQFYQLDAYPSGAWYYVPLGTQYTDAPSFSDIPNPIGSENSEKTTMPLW
Nature of the series: EMSA; 200 nM aptamer, 0.05 mg/mL protein, 4 C. The following applies: label: 5'-FAM (flow).

The next series has as its target T3, beta casein (UniProt P02666 P02666:16-224).
T3 sequence: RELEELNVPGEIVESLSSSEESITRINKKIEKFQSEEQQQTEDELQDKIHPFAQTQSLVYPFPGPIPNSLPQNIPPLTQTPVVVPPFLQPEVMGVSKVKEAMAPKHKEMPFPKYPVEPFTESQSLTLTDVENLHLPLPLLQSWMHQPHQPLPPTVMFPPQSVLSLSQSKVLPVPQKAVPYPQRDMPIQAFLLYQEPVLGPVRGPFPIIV
Kind of series: EMSA; 200 nM aptamer, 0.05 mg/mL protein, 4 C. The following applies: label: 5'-FAM (flow).

Another series concerns the target BSA (UniProt P02769 P02769:25-607). Nature of the series: EMSA; 200 nM aptamer, 0.05 mg/mL protein, 4 C. The note with it: label: 5'-FAM (flow).
Series [3] has as its target T1, Tau T231 peptide. Nature of the series: BLI; PBS + 5 mM Mg2+, 30 C. The following applies: protein: synthetic; tags: synthetic peptide (GenScript), N-terminal acetyl, C-terminal (Ahx)2-His6. The method, then:
as §2

In series [4] the target is T1, Tau T231 peptide. Kind of series: flow; binding lost; 4 C. The following applies: protein: synthetic; tags: synthetic peptide (GenScript), N-terminal acetyl, C-terminal (Ahx)2-His6. The method, then: as §1, with “BD ACCURI™ C6 flow cytometry (BD Immunocytometry Systems) was used to monitor the enrichment of aptamer candidates during the selection process and to evaluate the binding specificity of the selected aptamer candidates. For” for “For”

The target in another series is T4, Tau T231P phosphopeptide (UniProt P10636).
T4 chain: KVAVVR[pT]PPKSPS
Nature of the series: flow; binding lost completely; 4 C. The following applies: protein: synthetic. The method, then: as §1, with “BD ACCURI™ C6 flow cytometry (BD Immunocytometry Systems) was used to monitor the enrichment of aptamer candidates during the selection process and to evaluate the binding specificity of the selected aptamer candidates. For” for “For”

Series [5] addresses T1, Tau T231 peptide. Kind of series: flow; binding lost completely; 4 C. The note with it: protein: synthetic; tags: synthetic peptide (GenScript), N-terminal acetyl, C-terminal (Ahx)2-His6. The method, then: as §1, with “BD ACCURI™ C6 flow cytometry (BD Immunocytometry Systems) was used to monitor the enrichment of aptamer candidates during the selection process and to evaluate the binding specificity of the selected aptamer candidates. For” for “For”

In the next series the target is T5, Tau S202 peptide.
T5 chain: GYSSPGSPGTPGSR
Kind of series: flow; binding lost completely; 4 C. The following applies: protein: synthetic; tags: synthetic peptide (GenScript), N-terminal acetyl, C-terminal (Ahx)2-His6. The method, then:
as §1, with “BD ACCURI™ C6 flow cytometry (BD Immunocytometry Systems) was used to monitor the enrichment of aptamer candidates during the selection process and to evaluate the binding specificity of the selected aptamer candidates. For” for “For”

UCH-L1, sequence (P09936 whole entry, one chain of several): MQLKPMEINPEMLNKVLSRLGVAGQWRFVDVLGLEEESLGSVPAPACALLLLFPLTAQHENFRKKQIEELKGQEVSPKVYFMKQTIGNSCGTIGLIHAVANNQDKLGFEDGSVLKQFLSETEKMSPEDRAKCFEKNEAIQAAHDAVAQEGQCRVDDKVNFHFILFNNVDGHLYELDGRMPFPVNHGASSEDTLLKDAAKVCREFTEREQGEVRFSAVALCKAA
BSA, sequence (P02769 25-607, one chain of several): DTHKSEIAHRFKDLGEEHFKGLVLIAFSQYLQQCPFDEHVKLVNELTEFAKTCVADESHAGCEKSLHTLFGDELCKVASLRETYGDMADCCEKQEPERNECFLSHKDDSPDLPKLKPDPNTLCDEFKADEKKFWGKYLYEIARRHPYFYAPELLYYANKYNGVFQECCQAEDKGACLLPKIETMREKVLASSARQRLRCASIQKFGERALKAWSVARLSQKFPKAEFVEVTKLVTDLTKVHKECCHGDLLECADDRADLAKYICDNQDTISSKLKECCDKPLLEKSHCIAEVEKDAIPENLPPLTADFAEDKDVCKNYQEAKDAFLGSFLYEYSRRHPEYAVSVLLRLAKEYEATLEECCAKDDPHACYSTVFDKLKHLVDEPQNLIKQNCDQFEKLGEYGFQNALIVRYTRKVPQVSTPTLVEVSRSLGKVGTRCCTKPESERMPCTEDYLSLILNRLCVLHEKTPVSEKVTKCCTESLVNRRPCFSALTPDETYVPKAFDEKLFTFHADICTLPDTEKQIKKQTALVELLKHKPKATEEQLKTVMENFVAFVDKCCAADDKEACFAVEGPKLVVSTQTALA

B1: Ref2 (ssDNA)
DNA: AACGAGAAGCGCGATCACAT
Consider B1, for which the binding result with Tau T231 peptide [1] is listed as “no binding”.

B2: IT5 (ssDNA)
DNA: CAGCACCGTCAACTGAATGGCGGGGGGTCAGGTCGGGGTAAGGTGAGCGTGATGCGATGGAGATGT
For the molecule B2, the Kd (in general, the equilibrium constant for the complex coming apart) in series [2] (label: 5'-FAM (flow)) amounted to 7.6 nM. In addition, the binding result with UCH-L1, with alpha casein, with beta casein and in the series with BSA was “no binding” throughout.

B3: IT9 (ssDNA)
DNA: CAGCACCGTCAACTGAATTGCGGGGGGTCAGGTCGGGGTAAGGTGAGCGTGATGCGATGGAGATGT
Consider B3, for which the Kd in [2] (label: 5'-FAM (flow)) was determined as 22.8 nM. For the same molecule, the binding result with UCH-L1, with alpha casein, with beta casein and in the series with BSA was “no binding” each time.

B4: IT6a (ssDNA)
DNA: CACCGTCAACTGAATGTTGTCGTCAGAGGTTATAACCTGAACTCGGTG
As for B4, the Kd in [2] worked out at 28.2 nM.

B5: IT1c (ssDNA)
DNA: GCTTGGTCCTCCCGGGGTTCTGGAAAAGC
As for B5, the Kd in series [2] worked out at 13 nM; with Tau T231 peptide [3], 46 nM.

B6: Ref3 (ssDNA)
DNA: CTTCTGCCCGCCTCCTTCC
On to B6, for which, in the series with Tau T231 peptide [1], the binding result is listed as “no binding”.

B7: IT6 (ssDNA)
DNA: CAGCACCGTCAACTGAATGTTGTCGTCAGAGGTTATAACCTGAACTCGGTGATGCGATGGAGATGT
As to B7, the Kd in series [2] (label: 5'-FAM (flow), branched hairpin (predicted)) was 26.8 nM.

B8: IT4 (ssDNA)
DNA: CAGCACCGTCAACTGAATGGGTTGGCCGGGCAGCGGGGGGTAGGCTTGGTGATGCGATGGAGATGT
Consider B8, for which the dissociation constant (Kd) in series [2] (label: 5'-FAM (flow)) was 68 nM. Further, the binding result with UCH-L1, with alpha casein, with beta casein and with BSA was “no binding” in each case.

B9: IT1d (ssDNA)
DNA: TTGGTCCTCCCGGGGTTCTGGAAAA
For the molecule B9, in the series with Tau T231 peptide [4], the binding result is reported as “no binding”.

B10: IT1 (ssDNA)
DNA: CAGCACCGTCAACTGAATTGCTTGGTCCTCCCGGGGTTCTGGAAAAGCGTGATGCGATGGAGATGT
In the case of B10, in series [2] (label: 5'-FAM (flow)), the Kd turned out to be 9 nM.

B11: Ref1 (ssDNA)
DNA: GCGGAGCGTGGCAGG
B11: the binding result in the series with Tau T231 peptide [1] is “no binding”.

B12: IT3 (ssDNA)
DNA: CAGCACCGTCAACTGAATGGGGAGAGTGGTGGGGCGGGGGCCGGATCCGTGATGCGATGGAGATGT
Regarding B12, the dissociation constant Kd in series [2] (label: 5'-FAM (flow)) was found to be 17 nM. Further, the binding result in the series with UCH-L1, in the series with alpha casein, with beta casein and with BSA was “no binding” throughout.

B13: IT2b (ssDNA)
DNA: AAGGACTGCTTAGGATTGC
With B13, the binding result with Tau T231P phosphopeptide, with Tau T231 peptide [5] and with Tau S202 peptide was “no binding” in each case.

B14: IT2 (ssDNA)
DNA: CAGCACCGTCAACTGAATAAGGACTGCTTAGGATTGCGATGATTCAGGGTGATGCGATGGAGATGT
B14: in [2] (label: 5'-FAM (flow)), the Kd turned out to be 5.5 nM.

B15: IT2a (ssDNA)
DNA: CTGAATAAGGACTGCTTAGGATTGCGATGATTCAG
Turning to B15, the Kd in series [2] (hairpin) was found to be 19.5 nM.
